According to US12202907B2, “Nucleic acids encoding and methods of producing proteins comprising antibody chains” (Innate Pharma, priority 2018, dated 2025):

Assays:
CD39 = target: T1, CD39 (Homo sapiens, UniProt P49961); conditions: Levesque et al. (2007); cited from earlier work
T1 sequence (P49961 1-510): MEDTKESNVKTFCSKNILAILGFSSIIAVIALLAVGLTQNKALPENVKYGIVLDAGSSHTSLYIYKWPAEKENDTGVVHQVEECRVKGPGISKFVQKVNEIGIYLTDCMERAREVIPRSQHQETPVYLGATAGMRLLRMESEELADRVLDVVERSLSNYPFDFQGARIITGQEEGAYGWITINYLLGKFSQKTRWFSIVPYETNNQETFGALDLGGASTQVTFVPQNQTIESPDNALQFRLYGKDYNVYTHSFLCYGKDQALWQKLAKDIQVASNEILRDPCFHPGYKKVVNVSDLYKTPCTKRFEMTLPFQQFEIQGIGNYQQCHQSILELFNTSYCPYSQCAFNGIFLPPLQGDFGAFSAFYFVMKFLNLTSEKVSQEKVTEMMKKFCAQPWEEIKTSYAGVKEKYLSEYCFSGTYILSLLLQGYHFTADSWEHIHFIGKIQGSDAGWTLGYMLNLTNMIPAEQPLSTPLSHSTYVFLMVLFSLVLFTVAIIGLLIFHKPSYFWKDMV

[1] = Aggregation temperature (thermal shift stability assay); assay type: physicochemical; conditions: human IgG1 with L234A/L235E/G237A/A330S/P331S
Procedure: (§1) Antibodies mAb1-24 and prior art anti-CD39 antibody BY40, all produced as human IgG1 isotypes with L234A/L235E/G237A/A330S/P331S substitutions were tested for stability in the following reference formulation at a concentration of approximatively 7 mg/mL: pH 6.0; histidine buffer (10 mM); sucrose (200 mM); NaCl (50 mM); Polysorbate 80 (PS80) (0.2 g/L). The stability of the formulations was monitored in two storage conditions (at +5° C.±3° C. and at +40±3° C. For each study, 3 time points were performed: T0, T15D (15 days) and T1M (1 month). A freeze thaw (F/T) and a thermal shift stability assay (TSSA) were conducted for the format comparison. To perform F/T cycles, the samples were frozen at least 2 hours at −20° C. and thawed at least 1 hour at room temperature, the F/T cycle is repeated three times and samples are tested 24 h after the last Freeze/Thaw cycle. At each time point, the following tests were performed: • Particulate Matter (MFI) • Visual Inspection (Appearance) • Impurities (SE-HPLC) • Turbidity (400 nm) • Protein Concentration (280 nm) (performed with Nanodrop, Thermo Fisher Scientific Inc.)

[2] = target: T2, CD39 expressed by Ramos human lymphoma cells (Homo sapiens, UniProt P49961); assay: Inhibition of the enzymatic activity of cellular CD39 in Ramos cells; assay type: cell-based; conditions: Ramos cells
T2 construct: cells that endogenously express CD39 at their surface; host or cells: Ramos
T2 sequence (P49961 1-510): T1 sequence (P49961 1-510)
Procedure: (§2) The inhibition of the CD39 enzymatic activity in CD39-expressing cells by antibodies was evaluated using Cell Titer GIo™ (Promega, reference G7571) that allows assessment of ATP hydrolysis through use of a reagent that generates a luminescent signal proportional to the amount of ATP present. The assay was thus designed to permit assessment of the inhibition of ATP hydrolyzed by CD39 in the cell culture supernatant. Briefly, 5×10^4 Ramos human lymphoma cells, 5×10^3 human CD39−, cynomolgus CD39—and mouse CD39− expressing CHO cells, were incubated 1 hour at 37° C. with anti-CD39 antibodies from 30 μg/ml to 5×10^−4 μg/ml. Cells were then incubated with 20 μM ATP for 1 additional hour at 37° C. Plates were centrifuged for 2 min at 400 g and 50 μl cell supernatant are transferred in a luminescence microplate (white wells). 50 μl CellTiter-Glo™ Reagent (CTG) was added to the supernatant and emitted light was quantified after a 5 min incubation in the dark using a Enspire™ luminometer. Anti-CD39 antibody efficacy was determined by comparing emitted light in presence of antibody with ATP alone (maximal light emission) and ATP together with cells (minimal light emission).

[3] = test system: soluble CD39 protein released in cell culture supernatant from CHO cells expressing human CD39; assay: Inhibition of ATPase activity of soluble CD39 released in CHO-huCD39 culture supernatant; assay type: biochemical; conditions: humanized variants
Procedure: (§3) The inhibition by antibodies of the enzymatic activity of soluble CD39 protein produced was evaluated using Cell Titer GIo™ (Promega, reference G7571) that allows assessment of ATP hydrolysis through use of a reagent that generates a luminescent signal proportional to the amount of ATP present. In this way, inhibition of the soluble-CD39-meidated ATP hydrolysis can be assessed. Briefly, dose ranges of anti-CD39 antibodies from 100 μg/ml to […] were incubated with 400 ng/ml of soluble recombinant human CD39 protein having the amino acid sequence described in the Methods section (SEQ ID NO: 44), for 1 h at 37° C. 20 μM ATP was added to the plates for 30 additional minutes at 37° C. before addition of CTG (Cell Titer Glo) reagent. Emitted light was quantified using an Enspire™ luminometer after a short incubation period of 5 min in the dark. Anti-CD39 antibody efficacy was determined by comparing emitted light in presence of antibody with ATP alone (maximal light emission) and ATP together with soluble CD39 protein (minimal light emission).
Antibodies were tested for capacity to inhibit the ATPase activity of soluble CD39 protein using the assays used for inhibition of the enzymatic activity of soluble CD39 as described above (Methods). […]

[4] = Stability in reference formulation (storage, freeze thaw); assay type: physicochemical; conditions: about 7 mg/mL, pH 6.0 histidine/sucrose/NaCl/PS80, +5° C. and +40° C., up to 1 month
Procedure: as §1

[5] = target: T3, membrane-bound CD39 in Mino tumor cells (Homo sapiens, UniProt P49961); assay: Inhibition of the enzymatic activity of cellular CD39 in Mino cells; assay type: cell-based
T3 construct: endogenous in cells; host or cells: Mino
T3 sequence (P49961 1-510): T1 sequence (P49961 1-510)
Procedure: as §2
Antibodies were tested for potency in inhibition of ATPase activity in cell lines that express membrane-bound CD39. […]

[6] = target: T4, soluble recombinant human CD39 protein (Homo sapiens, UniProt P49961); assay: Inhibition of the enzymatic activity of soluble CD39 (Cell Titer Glo, cell-free); assay type: biochemical; conditions: humanized variants
T4 construct: made in house; host or cells: CHO cells
T4 sequence (P49961 with tags, fused parts or gaps): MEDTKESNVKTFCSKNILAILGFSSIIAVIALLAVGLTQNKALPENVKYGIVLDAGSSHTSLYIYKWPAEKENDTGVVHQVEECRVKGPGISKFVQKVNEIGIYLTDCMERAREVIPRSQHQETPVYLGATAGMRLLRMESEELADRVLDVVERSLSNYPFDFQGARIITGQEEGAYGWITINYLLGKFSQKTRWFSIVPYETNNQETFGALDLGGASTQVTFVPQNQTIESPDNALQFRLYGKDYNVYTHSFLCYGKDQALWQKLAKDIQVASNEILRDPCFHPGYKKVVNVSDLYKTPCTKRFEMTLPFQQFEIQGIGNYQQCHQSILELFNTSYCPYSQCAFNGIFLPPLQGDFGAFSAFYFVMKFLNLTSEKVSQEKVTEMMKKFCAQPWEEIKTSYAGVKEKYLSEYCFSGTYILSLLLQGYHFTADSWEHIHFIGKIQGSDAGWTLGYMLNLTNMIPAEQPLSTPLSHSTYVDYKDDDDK
Procedure: as §3

[7] = target: T5, human Ramos lymphoma cells (CD39) (Homo sapiens, UniProt P49961); assay: Antibody titration on Ramos cells by flow cytometry; assay type: binding; conditions: comparison
T5 construct: cells that endogenously express CD39 at their surface; host or cells: Ramos
T5 sequence (P49961 1-510): T1 sequence (P49961 1-510)
Procedure: Antibody I-394 was tested in two repeated experiments for binding to CHO cells expressing human CD39, CHO cells expressing cynomolgus (Macaca fascicularis) CD39, CHO cells expressing murine CD39, and human Ramos lymphoma cells (ATCC™, reference CRL-1596). Cells were incubated with various concentration of unlabeled anti-CD39 antibody from 30 μg/ml to 5×10^−4 μg/ml, for 30 minutes at 4° C. After washes, cells were incubated with Goat anti-mouse H+L labeled secondary antibody for 30 min at 4° C.

CCN(CC)c1ncnc2c1ncn2[C@@H]1O[C@H](COP(=O)(O)OP(=O)(O)C(Br)(Br)P(=O)(O)O)[C@@H](O)[C@H]1O [ARL67156]
inhibition of CD39 (mode, strength) (CD39): weak competitive inhibitor

B1: mAb21: humanized I-394 variant, VH H4 (SEQ ID NO: 31), VL L1* (SEQ ID NO: 37); heavy chain SEQ ID NO: 38, light chain SEQ ID NO: 40 (antibody)
heavy: QVQLVQSGAEVKKPGASVKVSCKASGYTFTDYNMHWVRQAPGQRLEWIGYIVPLNGGSTFNQKFKGRATITVDTSARTAYMELSSLRSEDTAVYYCARGGTRFAYWGQGTLVTVSSASTKGPSVFPLAPSSKSTSGGTAALGCLVKDYFPEPVTVSWNSGALTSGVHTFPAVLQSSGLYSLSSVVTVPSSSLGTQTYICNVNHKPSNTKVDKRVEPKSCDKTHTCPPCPAPEAEGAPSVFLFPPKPKDTLMISRTPEVTCVVVDVSHEDPEVKFNWYVDGVEVHNAKTKPREEQYNSTYRVVSVLTVLHQDWLNGKEYKCKVSNKALPSSIEKTISKAKGQPREPQVYTLPPSREEMTKNQVSLTCLVKGFYPSDIAVEWESNGQPENNYKTTPPVLDSDGSFFLYSKLTVDKSRWQQGNVFSCSVMHEALHNHYTQKSLSLSPGK
light: DIVMTQSPDSLAVSLGERATINCKASESVDNFGVSFMYWFQQKPGQPPKLLIYGASNQGSGVPDRFSGSGSGTDFTLTISSLQAEDVAVYYCQQTKEVPYTFGGGTKVEIKRTVAAPSVFIFPPSDEQLKSGTASVVCLLNNFYPREAKVQWKVDNALQSGNSQESVTEQDSKDSTYSLSSTLTLSKADYEKHKVYACEVTHQGLSSPVTKSFNRGEC
Aggregation temperature (TAgg) [1]: ~70 °C
potency at blocking CD39 enzymatic activity relative to other antibodies [2]: more potent at blocking CD39 enzymatic activity compared to all other antibodies
potency relative to parental I-394, soluble CD39 in CHO-huCD39 supernatant [3]: comparable to the parental I-394 antibody
physicochemical stability [4]: good physicochemical stability
potency at blocking CD39 enzymatic activity relative to other antibodies [5]: more potent at blocking CD39 enzymatic activity compared to all other antibodies
potency for inhibition of soluble CD39 relative to parental I-394 [6]: comparable to the parental I-394 antibody
binding to Ramos cells relative to I-394 [7]: best binding
